Measured values as given in US20240228660A1 (IP2IPO INNOVATIONS, published 2024).

biological target: T1, human full-length VWF (human, UniProt P04275 764-2813); assay: SPR, Biacore T200, antibody captured on Protein A, full-length VWF as analyte, single-cycle kinetics
Method: (§1) Antibodies were captured on Protein A sensor chip. The system was purged using running buffer (10 mM HEPES pH 7.4, 300 mM NaCl, 3 mM EDTA, 0.05% P20) and a series S Protein A chip was docked in the Biacore T200. The surface was conditioned with 10 mM glycine-HCl pH 1.5 regeneration solution (3 injections). Each antibody was diluted to ˜0.8 μg/ml in running buffer to capture ˜350 RU on flow cells 2, 3 and 4 (flow cell 1 used as in-line reference cell). Single-cycle kinetic analysis of human full-length VWF binding to antibodies was performed using the following parameters:

Kd [pM] | koff [s⁻¹] | kon [M⁻¹ s⁻¹] | Binder
22.3 |  |  | 1-D5_VH-par_VL-par (antibody, human IgG1, kappa, also called 1-D5_parental (hIgG1)) heavy chain: not shown light chain: DIVMTQTPSSVSAAVGDTVTIQCQASQSINSGLAWYQQKPGQPPKRLIYKASTLASGVPSRFRGSGSGTDFTLTISDLECADAATYYCQSYHYISANGATFGGGTEVVVETVAAPSVFIFPPSDEQLKSGTASVVCLLNNFYPREAKVQWKVDNALQSGNSQESVTEQDSKDSTYSLSSTLTLSKADYEKHKVYACEVTHQGLSSPVTKSFNRGEC
6.64 | 1.87e-07 | 28200 | 4-H3_H1_VL-par (antibody, human IgG1, kappa, also called 4-H3_H1 (hIgG1)) heavy chain: not shown light chain: AYDMTQTPPSLSASVGETVRIRCLASEDIASGISWYQQKPGKPPTLLIYGASNLESGVPPRFSGSGSGTDYTLTIGGVQAEDAATYYCLGGYSFSSNGLTFGAGTKVEIKTVAAPSVFIFPPSDEQLKSGTASVVCLLNNFYPREAKVQWKVDNALQSGNSQESVTEQDSKDSTYSLSSTLTLSKADYEKHKVYACEVTHQGLSSPVTKSFNRGEC
19.4 | 1.75e-06 | 90000 | 4-H3_H2_VL-par (antibody, human IgG1, kappa, also called 4-H3_H2 (hIgG1)) heavy chain: not shown light chain: AYDMTQTPPSLSASVGETVRIRCLASEDIASGISWYQQKPGKPPTLLIYGASNLESGVPPRFSGSGSGTDYTLTIGGVQAEDAATYYCLGGYSFSSNGLTFGAGTKVEIKTVAAPSVFIFPPSDEQLKSGTASVVCLLNNFYPREAKVQWKVDNALQSGNSQESVTEQDSKDSTYSLSSTLTLSKADYEKHKVYACEVTHQGLSSPVTKSFNRGEC
13.1 | 2.89e-07 | 22100 | 4-H3_H0_VL-par (antibody, human IgG1, kappa, V domains shown, also called 4-H3_H0 (hIgG1)) VH: QVQLVESGGGVVQPGRSLRLSCAASGFTFSSNAMNWVRQAPGKGLEWVAGIYGHDTSYYAAWAKGRFTISRDNSKNTLYLQMNSLRAEDTAVYYCARGFIYFDIWGQGTLVTVSS VL: AYDMTQTPPSLSASVGETVRIRCLASEDIASGISWYQQKPGKPPTLLIYGASNLESGVPPRFSGSGSGTDYTLTIGGVQAEDAATYYCLGGYSFSSNGLTFGAGTKVEIKT
29.4 | 1.59e-06 | 54200 | 4-H3_H3_VL-par (antibody, human IgG1, kappa, V domains shown, also called 4-H3_H3 (hIgG1)) VH: QVQLVESGGGVVQPGRSLRLSCAASGIDLTSNAMNWVRQAPGKGLEWIGGIYGHDTSYYAAWAKGRFTISRDNSKNTVYLQMNSLRAEDTAVYYCARGFIYFDIWGQGTLVTVSS VL: AYDMTQTPPSLSASVGETVRIRCLASEDIASGISWYQQKPGKPPTLLIYGASNLESGVPPRFSGSGSGTDYTLTIGGVQAEDAATYYCLGGYSFSSNGLTFGAGTKVEIKT
82.4 | 7.91e-06 | 96000 | 1-D5_VH-par_L1 (antibody, human IgG1, kappa, V domains shown, also called 1-D5_L1 (hIgG1K)) VH: QQQLVESGGRLVTPGTPLTLTCAVSGFSLNNYIMGWVRQAPGKGLEYIGIISTGGSTYYASWAKGRFTISRTSTTMDLKMTSLTTEDTATYFCARGGSSAGAGFNIWGPGTLVTVSS VL: DIQMTQSPSSLSASVGDRVTITCQASQSINSGLAWYQQKPGKAPKRLIYKASTLASGVPSRFSGSGSGTDFTLTISSLQPEDFATYYCQSYHYISANGATFGGGTKVEIKT
50 | 6.59e-06 | 132000 | 1-D5_VH-par_L0 (antibody, human IgG1, kappa, V domains shown, also called 1-D5_L0 (hIgG1K)) VH: QQQLVESGGRLVTPGTPLTLTCAVSGFSLNNYIMGWVRQAPGKGLEYIGIISTGGSTYYASWAKGRFTISRTSTTMDLKMTSLTTEDTATYFCARGGSSAGAGFNIWGPGTLVTVSS VL: DIQMTQSPSSLSASVGDRVTITCQASQSINSGLAWYQQKPGKAPKLLIYKASTLASGVPSRFSGSGSGTDFTLTISSLQPEDFATYYCQSYHYISANGATFGGGTKVEIKT
31.2 | 4.2e-06 | 135000 | 1-D5_H2_VL-par (antibody, human IgG1, kappa, V domains shown, also called 1-D5_H2 (hIgG1)) VH: QQQLVESGGGVVQPGRSLRLSCAASGFSLNNYIMGWVRQAPGKGLEYIGIISTGGSTYYASWAKGRFTISRDSNTMYLQMNSLRAEDTATYFCARGGSSAGAGFNIWGQGTLVTVSS VL: DIVMTQTPSSVSAAVGDTVTIQCQASQSINSGLAWYQQKPGQPPKRLIYKASTLASGVPSRFRGSGSGTDFTLTISDLECADAATYYCQSYHYISANGATFGGGTEVVVET
0.304 | 2.37e-08 | 78000 | 1-D5_H1_VL-par (antibody, human IgG1, kappa, V domains shown, also called 1-D5_H1 (hIgG1)) VH: QVQLVESGGGVVQPGRSLRLSCAASGFSLNNYIMGWVRQAPGKGLEWVAIISTGGSTYYASWAKGRFTISRDNSKNTLYLQMNSLRAEDTAVYYCARGGSSAGAGFNIWGQGTLVTVSS VL: DIVMTQTPSSVSAAVGDTVTIQCQASQSINSGLAWYQQKPGQPPKRLIYKASTLASGVPSRFRGSGSGTDFTLTISDLECADAATYYCQSYHYISANGATFGGGTEVVVET
0.031 | 2.38e-09 | 77000 | 1-D5_H0_VL-par (antibody, human IgG1, kappa, V domains shown, also called 1-D5_H0 (hIgG1)) VH: QVQLVESGGGVVQPGRSLRLSCAASGFTFSNYIMGWVRQAPGKGLEWVAIISTGGSTYYASWAKGRFTISRDNSKNTLYLQMNSLRAEDTAVYYCARGGSSAGAGFNIWGQGTLVTVSS VL: DIVMTQTPSSVSAAVGDTVTIQCQASQSINSGLAWYQQKPGQPPKRLIYKASTLASGVPSRFRGSGSGTDFTLTISDLECADAATYYCQSYHYISANGATFGGGTEVVVET
43.4 |  |  | 3-H9_VH-par_VL-par (antibody, human IgG1, kappa, also called 3-H9_parental (hIgG1)) heavy chain: not shown light chain: AIKMTQTPSSVSVAVGGTVTINCQSSQSVYSNNLLSWYQQKPGQPPKLLIYDASTLESGVPSRFKGSGSGTQFTLTISGVQCEDAATYYCQGSYYSSGWYNTFGGGTEVVVETVAAPSVFIFPPSDEQLKSGTASVVCLLNNFYPREAKVQWKVDNALQSGNSQESVTEQDSKDSTYSLSSTLTLSKADYEKHKVYACEVTHQGLSSPVTKSFNRGEC

biological target: T1, human full-length VWF; assay: as above; remark: another data set of the same source
Method: as §1

Kd [nM] | koff [s⁻¹] | kon [M⁻¹ s⁻¹] | Binder
0.111 | 2.12e-05 | 192000 | 3-H9_VH-par_L0 (antibody, human IgG1, kappa, V domains shown, also called 3-H9_L0 (hIgG1K)) VH: SQSLEESGGRLVTPGTPLTLTCSVSGFSLSNYDMSWVRQAPGKGLEWIGSIHAIGITYYANWAEGRFTISKTSTTVDLKMTSLTTEDTATYFCARGLVDLNMWGPGTLVTVSS VL: DIQMTQSPSSLSASVGDRVTITCQSSQSVYSNNLLSWYQQKPGKAPKLLIYDASTLESGVPSRFSGSGSGTDFTLTISSLQPEDFATYYCQGSYYSSGWYNTFGGGTKVEIKT
0.0124 | 1.14e-06 | 92000 | 3-H9_H2_VL-par (antibody, human IgG1, kappa, V domains shown, also called 3-H9_H2 (hIgG1)) VH: QQLVESGGGVVQPGRSLRLSCAASGFSLSNYDMSWVRQAPGKGLEWIGSIHAIGITYYANWAEGRFTISRDKNTVYLQMNSLRAEDTATYFCARGLVDLNMWGQGTLVTVSS VL: AIKMTQTPSSVSVAVGGTVTINCQSSQSVYSNNLLSWYQQKPGQPPKLLIYDASTLESGVPSRFKGSGSGTQFTLTISGVQCEDAATYYCQGSYYSSGWYNTFGGGTEVVVET
0.00313 | 7.18e-08 | 22900 | 3-H9_H1_VL-par (antibody, human IgG1, kappa, V domains shown, also called 3-H9_H1 (hIgG1)) VH: not shown VL: AIKMTQTPSSVSVAVGGTVTINCQSSQSVYSNNLLSWYQQKPGQPPKLLIYDASTLESGVPSRFKGSGSGTQFTLTISGVQCEDAATYYCQGSYYSSGWYNTFGGGTEVVVET

biological target: T1, human full-length VWF; assay: as above; remark: another data set of the same source
Method: as §1

Kd [nM] | koff [s⁻¹] | kon [M⁻¹ s⁻¹] | Binder
0.0161 | 4.34e-07 | 26900 | 4-H3_H5_VL-par (antibody, human IgG1, kappa, also called 4-H3_H5 (hIgG1)) heavy chain: not shown light chain: AYDMTQTPPSLSASVGETVRIRCLASEDIASGISWYQQKPGKPPTLLIYGASNLESGVPPRFSGSGSGTDYTLTIGGVQAEDAATYYCLGGYSFSSNGLTFGAGTKVEIKTVAAPSVFIFPPSDEQLKSGTASVVCLLNNFYPREAKVQWKVDNALQSGNSQESVTEQDSKDSTYSLSSTLTLSKADYEKHKVYACEVTHQGLSSPVTKSFNRGEC
